US6004793

Test system: AvaI restriction endonuclease (recombinant) V1M (start codon GTG changed to ATG) (Anabaena variabilis)
Experiment: cleavage_in_vitro
Details: extract of ER2504 [pLG-BsoBIM, pLysS, pAII17-AvaIR]; lambda DNA digestion; recognition site not given

Q: With bacteriophage lambda DNA as the substance, how does the activity (units/g wet cells) read?
A: The activity (units/g wet cells) was 6.4e+06.
